The values that follow come from the supplement of paper PMC7877785.

± gives the uncertainty stated by the source.

This series can be described thus: self-splicing fitness, log relative to wild type (ln ratio); higher = more splicing; Tetrahymena group I intron in knt gene, E. coli kanamycin selection, DiMSum; sequences stand for … in CUCUCU…GGAGGGAAAAGUUAUCAGGCAUGCACCUGGUAGCUAGUCUUUAAACCAAUAGAUUGCAUCGGUUUAAAAGGCAAGACCGUCAAAUUGCGGGAAAGGGGUCAACAGCCGUUCAGUACCAAGUCUCAGGGGAAACUUUGAGAUGGCCUUGCAAAGGGUAUGGUAAUAAGCUGACGGACAUGGUCCUAACCACGCAGCCAAGUCCUAAGUCAACAGAUCUUCUGUUGAUAUGGAUGCAGUUCACAGACUAAAUGUCGGUCGGGGAAGAUGUAUUCUUCUCAUAAGAUAUAGUCGGACCUCUCCUUAAUGGGAGCUAGCGGAUGAAGUGAUGCAACACUGGAGCCGCUGGGAACUAAUUUGUAUGCGAAAGUAUAUUGAUUAGUUUUGGAGUACUCGUGGUCG
The essentials: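 Pooled colonies went to amplicon sequencing on an Illumina HiSeq 2500 after six replicate transformations. The plates were LB agar with 100 μg/mL carbenicillin, 50 μM IPTG and 0.2% rhamnose, with or without 25 μg/mL kanamycin, incubated overnight at 37°C or 30°C. The E. coli BL21(DE3) library had all eight P1ex-region intron nucleotides randomised, the intron placed in the knt kanamycin-resistance gene on pET-22b(+). DiMSum fitness is the error-weighted combination of replicate fold changes, kanamycin against none, normalised to wild type.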

CUAUAGCAAUAUUACGAAGG: the “self-splicing fitness (ln)” value is -1.76 ± 0.13 (30 °C) and -1.72 ± 0.19 (37 °C).

For CUAUAGCAAUAUUACGACCA, the “self-splicing fitness (ln)” value (30 °C) is -3.1 ± 0.29 and the “self-splicing fitness (ln)” value (37 °C) is -2.44 ± 0.35. Turning to CUAUAGCAAUAUUACGAGGG, the “self-splicing fitness (ln)” value runs as follows: (30 °C) -3.08 ± 0.21; (37 °C) -2.41 ± 0.27. On to CUAUAGCAAUAUUACGAUAU, for which the “self-splicing fitness (ln)” value runs as follows: (30 °C) -2.53 ± 0.21; (37 °C) -2.45 ± 0.45. As to CUAUAGCAAUAUUACGCAGA, the “self-splicing fitness (ln)” value (30 °C) was -2.65 ± 0.16 and the “self-splicing fitness (ln)” value (37 °C) was -1.2 ± 0.14. The like results for CUAUAGCAAUAUUACGCGCA were, in that order, -2.97 ± 0.46 and -1.65 ± 0.47. On the same counts, the results for CUAUAGCAAUAUUACGCGGC are -1.25 ± 0.26 and 0.45 ± 0.25.

CUAUAGCAAUAUUACGCGGG: the “self-splicing fitness (ln)” value reads like this: (30 °C) -3.11 ± 0.28; (37 °C) -2.88 ± 0.31. On the same counts, the results for CUAUAGCAAUAUUACGCUAA are -1.65 ± 0.2 and -2.41 ± 0.32.

For the sequence CUAUAGCAAUAUUACGCUCU, the “self-splicing fitness (ln)” value reads like this: (30 °C) -3.4 ± 0.29; (37 °C) -2.3 ± 0.34. On the same counts, the results for CUAUAGCAAUAUUACGCUGU are -3.72 ± 0.26 and -1.29 ± 0.22. Consider CUAUAGCAAUAUUACGGAGU, for which the “self-splicing fitness (ln)” value was -4.03 ± 0.28 (30 °C) and -2.86 ± 0.26 (37 °C).

In the case of CUAUAGCAAUAUUACGGCAC, the “self-splicing fitness (ln)” value was -2.18 ± 0.24 (30 °C) and -1.09 ± 0.42 (37 °C). On to CUAUAGCAAUAUUACGGCCA, for which the “self-splicing fitness (ln)” value (37 °C) is -3.35 ± 0.43. Regarding CUAUAGCAAUAUUACGGCUA, the “self-splicing fitness (ln)” value is, setting by setting: (30 °C) -2.95 ± 0.28; (37 °C) -3.42 ± 0.47. Consider CUAUAGCAAUAUUACGGGAC, for which the “self-splicing fitness (ln)” value (30 °C) is -2.51 ± 0.3. With CUAUAGCAAUAUUACGGGAG, the “self-splicing fitness (ln)” value by setting is: (30 °C) -2.58 ± 0.27; (37 °C) -1.87 ± 0.28. On the same counts, the results for CUAUAGCAAUAUUACGGUAA are -3.01 ± 0.23 and -1.69 ± 0.18. The like results for CUAUAGCAAUAUUACGGUAU were, in that order, -4.43 ± 0.36 and -3.22 ± 0.27. On the same counts, the results for CUAUAGCAAUAUUACGGUUG are -0.804 ± 0.088 and 0.0411 ± 0.1.

CUAUAGCAAUAUUACGGUUU: the “self-splicing fitness (ln)” value is, setting by setting: (30 °C) -3.72 ± 0.12; (37 °C) -2.58 ± 0.17.

CUAUAGCAAUAUUACGUGGA: the “self-splicing fitness (ln)” value (30 °C) is -2.83 ± 0.19 and the “self-splicing fitness (ln)” value (37 °C) is -2.4 ± 0.27.

Turning to CUAUAGCAAUAUUACGUUAC, the “self-splicing fitness (ln)” value by setting is: (30 °C) -3.45 ± 0.25; (37 °C) -2.14 ± 0.33. On the same counts, the results for CUAUAGCAAUAUUACGUUGG are -3.71 ± 0.16 and -2.79 ± 0.17. On to CUCAAGCAAUAUUACGAAGU, for which the “self-splicing fitness (ln)” value reads like this: (30 °C) -3.75 ± 0.2; (37 °C) -2.36 ± 0.21.

For the sequence CUCAAGCAAUAUUACGACGU, the “self-splicing fitness (ln)” value reads like this: (30 °C) -2.18 ± 0.098; (37 °C) -1.54 ± 0.11. Regarding CUCAAGCAAUAUUACGAGAC, the “self-splicing fitness (ln)” value is -3.27 ± 0.21 (30 °C) and -2.35 ± 0.23 (37 °C). The like results for CUCAAGCAAUAUUACGAGCG were, in that order, -3 ± 0.15 and -1.31 ± 0.12.

On to CUCAAGCAAUAUUACGAGGG, for which the “self-splicing fitness (ln)” value (37 °C) is -2.8 ± 0.43.

Take CUCAAGCAAUAUUACGAUAC: the “self-splicing fitness (ln)” value (30 °C) is -1.63 ± 0.18.

For the sequence CUCAAGCAAUAUUACGAUUA, the “self-splicing fitness (ln)” value was -3.59 ± 0.47 (30 °C) and -2.37 ± 0.23 (37 °C). The like results for CUCAAGCAAUAUUACGCACU were, in that order, -3.2 ± 0.24 and -2.08 ± 0.28. The like results for CUCAAGCAAUAUUACGCUAC were, in that order, -4.12 ± 0.29 and -2.23 ± 0.24. The like results for CUCAAGCAAUAUUACGCUUU were, in that order, -4.09 ± 0.37 and -3.52 ± 0.31. With CUCAAGCAAUAUUACGGAAA, the “self-splicing fitness (ln)” value runs as follows: (30 °C) -3.21 ± 0.28; (37 °C) -2.6 ± 0.25. For the sequence CUCAAGCAAUAUUACGGCAU, the “self-splicing fitness (ln)” value (30 °C) is -2.66 ± 0.18 and the “self-splicing fitness (ln)” value (37 °C) is -1.58 ± 0.24. The like results for CUCAAGCAAUAUUACGGGUG were, in that order, -1.43 ± 0.059 and -1.2 ± 0.073. CUCAAGCAAUAUUACGGUGA: the “self-splicing fitness (ln)” value (30 °C) is -2.9 ± 0.12 and the “self-splicing fitness (ln)” value (37 °C) was -1.29 ± 0.12.

In the case of CUCAAGCAAUAUUACGGUUC, the “self-splicing fitness (ln)” value is, setting by setting: (30 °C) -3.65 ± 0.17; (37 °C) -2.74 ± 0.16.

Regarding CUCAAGCAAUAUUACGUGGU, the “self-splicing fitness (ln)” value by setting is: (30 °C) -3.18 ± 0.12; (37 °C) -2.09 ± 0.12. For the sequence CUCCAGCAAUAUUACGACCU, the “self-splicing fitness (ln)” value (30 °C) was -3.4 ± 0.32.

In the case of CUCCAGCAAUAUUACGAGGA, the “self-splicing fitness (ln)” value reads like this: (30 °C) -2.35 ± 0.11; (37 °C) -2.99 ± 0.18.

In the case of CUCCAGCAAUAUUACGCCAU, the “self-splicing fitness (ln)” value was -3.28 ± 0.31 (30 °C) and -2.34 ± 0.25 (37 °C). For CUCCAGCAAUAUUACGCGAC, the “self-splicing fitness (ln)” value is, setting by setting: (30 °C) -3.79 ± 0.2; (37 °C) -2.31 ± 0.18. On the same counts, the results for CUCCAGCAAUAUUACGCGAG are -2.19 ± 0.2 and -2.94 ± 0.3.

As for CUCCAGCAAUAUUACGCGCG, the “self-splicing fitness (ln)” value is, setting by setting: (30 °C) -3.29 ± 0.17; (37 °C) -0.928 ± 0.15. On the same counts, the results for CUCCAGCAAUAUUACGCUAC are -4.08 ± 0.29 and -2.75 ± 0.23. Turning to CUCCAGCAAUAUUACGCUUG, the “self-splicing fitness (ln)” value (30 °C) is -3.52 ± 0.19 and the “self-splicing fitness (ln)” value (37 °C) was -2.96 ± 0.21. Consider CUCCAGCAAUAUUACGGGAG, for which the “self-splicing fitness (ln)” value (30 °C) was -3.68 ± 0.15 and the “self-splicing fitness (ln)” value (37 °C) is -1.91 ± 0.16.

As to CUCCAGCAAUAUUACGGUAG, the “self-splicing fitness (ln)” value is -3.88 ± 0.19 (30 °C) and -3.24 ± 0.27 (37 °C). The like results for CUCCAGCAAUAUUACGGUCC were, in that order, -3.11 ± 0.17 and -2.83 ± 0.38. As to CUCCAGCAAUAUUACGUACU, the “self-splicing fitness (ln)” value is, setting by setting: (30 °C) -3.3 ± 0.29; (37 °C) -3.21 ± 0.28. The like results for CUCCAGCAAUAUUACGUCAG were, in that order, -1.2 ± 0.067 and -0.906 ± 0.098.

CUCCAGCAAUAUUACGUCUU: the “self-splicing fitness (ln)” value runs as follows: (30 °C) -4.45 ± 0.28; (37 °C) -2.88 ± 0.16. On the same counts, the results for CUCCAGCAAUAUUACGUGAU are -2.1 ± 0.078 and -1.59 ± 0.1. The like results for CUCCAGCAAUAUUACGUUAA were, in that order, -3.9 ± 0.25 and -2.68 ± 0.36. On the same counts, the results for CUCCAGCAAUAUUACGUUUA are -3.31 ± 0.27 and -2.27 ± 0.18.

Consider CUCGAGCAAUAUUACGACGG, for which the “self-splicing fitness (ln)” value (30 °C) is -1.94 ± 0.15 and the “self-splicing fitness (ln)” value (37 °C) was -0.385 ± 0.18. The like results for CUCGAGCAAUAUUACGAUGA were, in that order, -2.19 ± 0.19 and -1.36 ± 0.2. On to CUCGAGCAAUAUUACGCCUG, for which the “self-splicing fitness (ln)” value is -3.03 ± 0.24 (30 °C) and -2.58 ± 0.49 (37 °C). Consider CUCGAGCAAUAUUACGCGGG, for which the “self-splicing fitness (ln)” value (30 °C) was -3.9 ± 0.39.

In the case of CUCGAGCAAUAUUACGCGUC, for the setting “37 °C”, the “self-splicing fitness (ln)” value was -2.79 ± 0.32. In the case of CUCGAGCAAUAUUACGCUUA, the “self-splicing fitness (ln)” value (30 °C) was -2.27 ± 0.47 and the “self-splicing fitness (ln)” value (37 °C) was -2.22 ± 0.34. For CUCGAGCAAUAUUACGGAGA, the “self-splicing fitness (ln)” value by setting is: (30 °C) -2.57 ± 0.36; (37 °C) -1.72 ± 0.28. The like results for CUCGAGCAAUAUUACGGAUA were, in that order, -2.79 ± 0.28 and -3.68 ± 0.46. For the sequence CUCGAGCAAUAUUACGGCUU, the “self-splicing fitness (ln)” value (30 °C) is -2.57 ± 0.47.

Take CUCGAGCAAUAUUACGGGUG: the “self-splicing fitness (ln)” value by setting is: (30 °C) -2.04 ± 0.077; (37 °C) -1.88 ± 0.095. On the same counts, the results for CUCGAGCAAUAUUACGGUUA are -2.71 ± 0.16 and -1.58 ± 0.13. On the same counts, the results for CUCGAGCAAUAUUACGUAUU are -3.51 ± 0.15 and -1.96 ± 0.14.

On to CUCGAGCAAUAUUACGUGAC, for which the “self-splicing fitness (ln)” value by setting is: (30 °C) -2.55 ± 0.17; (37 °C) -1.73 ± 0.16. On the same counts, the results for CUCGAGCAAUAUUACGUGCA are -2.2 ± 0.17 and -1.01 ± 0.17. Consider CUCGAGCAAUAUUACGUGCU, for which the “self-splicing fitness (ln)” value (30 °C) was -2.36 ± 0.24. Take CUCGAGCAAUAUUACGUGGC: the “self-splicing fitness (ln)” value (37 °C) is -0.934 ± 0.32. Same read-out and setting: the same measure for CUCGAGCAAUAUUACGUGUC: -2.76 ± 0.27. Consider CUCGAGCAAUAUUACGUUCC, for which the “self-splicing fitness (ln)” value was -3.4 ± 0.19 (30 °C) and -2.63 ± 0.27 (37 °C). On the same counts, the results for CUCGAGCAAUAUUACGUUCU are -3.52 ± 0.17 and -2.8 ± 0.18.

Take CUCGAGCAAUAUUACGUUGA: the “self-splicing fitness (ln)” value runs as follows: (30 °C) -3.86 ± 0.28; (37 °C) -2.63 ± 0.38. As to CUCGAGCAAUAUUACGUUGG, the “self-splicing fitness (ln)” value runs as follows: (30 °C) -3.48 ± 0.18; (37 °C) -3.17 ± 0.14. Turning to CUCUAGCAAUAUUACGAACA, the “self-splicing fitness (ln)” value (37 °C) is -2.98 ± 0.34.
